Source: patent US11053304 (CENTIVAX, dated 2021)
Substitutions are numbered along the chain they refer to.

B1: COVID19_P07_D08 (scFv, V domains shown)
VH: EVQLVESGGGLVQPGGSLRLSCAASGFTFRNYAMHWVRQAPGKGLEWVSAIGTGGDTYYADSVKGRFTISRDNSKNTLYLQMNSLRAEDTAVYYCVTNMDNSRDYFPHYFHDMDVWGQGTLVTVSS
VL: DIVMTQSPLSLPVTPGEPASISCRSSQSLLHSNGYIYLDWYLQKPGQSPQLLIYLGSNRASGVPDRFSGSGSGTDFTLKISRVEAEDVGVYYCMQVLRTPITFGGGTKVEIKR
B2: COVID19_P07_A12 (scFv, V domains shown)
VH: B1 VH with R30S, T53A, D56G
VL: DIVMTQSPLSLPVTPGEPASISCRSSQSLLYSDGDTYLDWYLQKPGQSPQLLIYLGSNRASGVPDRFSGSGSGTDFTLKISRVEAEDVGVYYCMQALQTPLTFGGGTKVEIKR
B3: COVID19_P07_B08 (scFv, V domains shown)
VH: EVQLVESGGGLVQPGGSLRLSCAASGFTFDDYAMHWVRQAPGKGLEWVSVISGSGRNTYYADSVKGRFTISRDNSKNTLYLQMNSLRAEDTAVYYCVTNMDNSRDYFPHYFHDMDVWGQGTLVTVSS
VL: not shown
B4: COVID19_P07_D04 (scFv, V domains shown)
VH: B3 VH with T28R, D30S, Y32H, A33P, S49A, S52T, T58K, Y59F
VL: DIVMTQSPLSLPVTPGEPASISCRSSQSLLHRNGYNYLDWYLQKPGQSPQLLIYGASTRATGVPDRFSGSGSGTDFTLKISRVEAEDVGVYYCTQSLQTPLTFGGGTKVEIKR
B5: COVID19_P07_H05 (scFv, V domains shown)
VH: B3 VH with D30S, D31S, A33G, V37I, S52T, S54D, T58K, Y59F
VL: not shown
B6: COVID19_P07_G08 (scFv, V domains shown)
VH: B3 VH with D30S, D31S, V50A, R56G, N57S
VL: not shown
B7: COVID19_P19_H03 (scFv, V domains shown)
VH: B3 VH with D30S, D31S, A33G, S49A, G53Y, S54D, R56S, T58K
VL: not shown
B8: COVID19_P08_C02 (scFv, V domains shown)
VH: B3 VH with D30S, D31S, V50G, I51V, G53A, R56G, N57G, T58P
VL: not shown
B9: COVID19_P08_F08 (scFv, V domains shown)
VH: B3 VH with D30T, D31S, A33G, V50A, R56G, N57T
VL: not shown
B10: COVID19_P08_B05 (scFv, V domains shown)
VH: B3 VH with D30S, D31S, A33G, V50A, R56G, N57T
VL: not shown
B11: COVID19_P07_E03 (scFv, V domains shown)
VH: B3 VH with T28I, D30S, D31S, Y32F, A33G, V50A, G53D, R56D, N57A, Y59Q
VL: not shown
B12: COVID19_P07_D05 (scFv, V domains shown)
VH: B3 VH with D30R, D31S, S49A, G53H, S54D, G55A, R56S, T58K
VL: not shown
B13: COVID19_P08_A10 (scFv, V domains shown)
VH: B3 VH with T28I, D30N, A33G, V50A, R56G
VL: not shown
B14: COVID19_P07_H03 (scFv, V domains shown)
VH: B3 VH with D30S, D31S, V50A, G53R, R56D, N57S, T58A
VL: not shown
B15: COVID19_P08_D11 (scFv, V domains shown)
VH: B3 VH with T28K, D30N, D31T, V50A, G53I, S54T, R56G
VL: not shown
B16: COVID19_P07_D10 (scFv, V domains shown)
VH: B3 VH with V50A, I51V, G53T, S54T, R56G, N57S
VL: not shown
B17: COVID19_P19_D02 (scFv, V domains shown)
VH: B3 VH with D30S, D31S, A33G, S49A, V50A, R56G, N57S, Y59H
VL: not shown
B18: COVID19_P20_F04 (scFv, V domains shown)
VH: B3 VH with T28A, D30S, D31S, M34L, V50A, R56G, N57D
VL: B2 VL with Y31H, S32R, D33N, D35Y, T36N, L38V, K79R, L97R
B19: COVID19_P07_F05 (scFv, V domains shown)
VH: B3 VH with D30S, D31N, V50G, G53S, S54G, R56S, N57G, Y59H
VL: not shown
B20: COVID19_P07_E10 (scFv, V domains shown)
VH: B3 VH with D30S, D31S, A33G, S49A, G53Y, S54D, R56S, T58K
VL: B2 VL with Y31H, D33N, D35Y, T36N, Y37D, L55G, R59G
B21: COVID19_P07_H06 (scFv, V domains shown)
VH: EVQLVESGGGLVQPGGSLRLSCAASGFTFSSYGMHWIRQAPGKGLEWVSAVSASGDRTHYADSVKGRFTISRDNSKNTLYLQMNSLRAEDTAVYYCVTNLDNSRDYFPHYFHDMDVWGQGTLVTVSS
VL: not shown
B22: COVID19_P20_F05 (scFv, V domains shown)
VH: B21 VH with S31T, G33A, I37V, A50G, A53W, S54N, D56S, L100M
VL: not shown
B23: COVID19_P20_B01 (scFv, V domains shown)
VH: B3 VH with D30S, D31S, S49A, G53S, T58K, Y59F
VL: not shown

These binders were tested against SARS-CoV-1 Receptor Binding Domain (RBD) protein (SARS-CoV-1, UniProt P59594 306-527) (assay: SPR, scFv captured via anti-V5, RBD as analyte).

Row | Binder | binding result
1 | B1 | no binding (tested: up to 300 nM)
2 | B2 | no binding (tested: up to 300 nM)
3 | B3 | no binding (tested: up to 300 nM)
4 | B4 | no binding (tested: up to 300 nM)
5 | B5 | no binding (tested: up to 300 nM)
6 | B6 | no binding (tested: up to 300 nM)
7 | B7 | no binding (tested: up to 300 nM)
8 | B8 | no binding (tested: up to 300 nM)
9 | B9 | no binding (tested: up to 300 nM)
10 | B10 | no binding (tested: up to 300 nM)
11 | B11 | no binding (tested: up to 300 nM)
12 | B12 | no binding (tested: up to 300 nM)
13 | B13 | no binding (tested: up to 300 nM)
14 | B14 | no binding (tested: up to 300 nM)
15 | B15 | no binding (tested: up to 300 nM)
16 | B16 | no binding (tested: up to 300 nM)
17 | B17 | no binding (tested: up to 300 nM)
18 | B18 | no binding (tested: up to 300 nM)
19 | B19 | no binding (tested: up to 300 nM)
20 | B20 | no binding (tested: up to 300 nM)
21 | B21 | no binding (tested: up to 300 nM)
22 | B22 | no binding (tested: up to 300 nM)
23 | B23 | no binding (tested: up to 300 nM)

The binders below were run against MERS Receptor Binding Domain (RBD) protein (MERS coronavirus, UniProt K9N5Q8 367-606) (assay: SPR, scFv captured via anti-V5, RBD as analyte).

Row | Binder | binding result
24 | B1 | no binding (tested: up to 300 nM)
25 | B2 | no binding (tested: up to 300 nM)
26 | B3 | no binding (tested: up to 300 nM)
27 | B4 | no binding (tested: up to 300 nM)
28 | B5 | no binding (tested: up to 300 nM)
29 | B6 | no binding (tested: up to 300 nM)
30 | B7 | no binding (tested: up to 300 nM)
31 | B8 | no binding (tested: up to 300 nM)
32 | B9 | no binding (tested: up to 300 nM)
33 | B10 | no binding (tested: up to 300 nM)
34 | B11 | no binding (tested: up to 300 nM)
35 | B12 | no binding (tested: up to 300 nM)
36 | B13 | no binding (tested: up to 300 nM)
37 | B14 | no binding (tested: up to 300 nM)
38 | B15 | no binding (tested: up to 300 nM)
39 | B16 | no binding (tested: up to 300 nM)
40 | B17 | no binding (tested: up to 300 nM)
41 | B18 | no binding (tested: up to 300 nM)
42 | B19 | no binding (tested: up to 300 nM)
43 | B20 | no binding (tested: up to 300 nM)
44 | B21 | no binding (tested: up to 300 nM)
45 | B22 | no binding (tested: up to 300 nM)
46 | B23 | no binding (tested: up to 300 nM)

These binders were tested against SARS-CoV-2 Receptor Binding Domain (RBD) protein (SARS-CoV-2, UniProt P0DTC2 319-541) (assay: SPR, scFv captured via anti-V5, RBD as analyte).

Row | Binder | Kd | koff | kon
47 | B1 | 1.7 nM | 5.7e-05 s⁻¹ | 34100 M⁻¹ s⁻¹
48 | B4 | 2.3 nM | 5.7e-05 s⁻¹ | 24400 M⁻¹ s⁻¹
